Results taken from US20220143148A1, “COMPOSITIONS AND METHODS FOR MODULATING CGRP SIGNALING TO REGULATE INTESTINAL INNATE LYMPHOID CELLS” (The Broad Institute, Inc., priority 2019, published 2022).

Test system: small intestinal immune cells
Experiment: Droplet-based scRNA-seq of small intestinal immune cells (LP and PP), OVA vs PBS, clustering and differential expression
Type: in vivo, mouse
From the text: To comprehensively characterize small intestinal immune cells, Applicants generated scRNA-Seq profiles for 58,067 immune cells collected from lamina propria (LP) and Peyer's patch (PP) regions at steady state and after induction of a type 2 inflammatory reaction to ovalbumin (OVA) (Brandt et al., 2003) (FIGS. 1A and 8A). To ensure sufficient representation of rare cells, Applicants combined a normalization strategy—removing by flow sorting either a portion of IgD+ naïve B cells, which are the most abundant cell type in PPs, or all CD19+ and CD3+ T cells (FIG. 8B, Methods)—with profiling of a sufficiently large number of cells number (P>0.99 to recover at least 15 cells from each cluster, Methods) by massively parallel scRNA-seq (Haber et al., 2017) (Methods). Applicants obtained 36,797 and 21,270 high quality cells passing initial filtering (Methods) from PP and LP regions, respectively.
Overall, Applicants annotated 27 cell subsets across the two compartments, spanning T cells, B cells, ILCs, dendritic cells (DCs), myeloid cells and stromal cells, in frequencies ranging from 0.07% to 14%. Briefly, Applicants first partitioned the cells from the PP regions by unsupervised clustering (Methods) into 46 clusters, retained the 97% of cells that were robustly assigned cell identities in each cluster (Methods), assigned the cells from the LP regions to the 46 clusters using a classifier (Methods), and visualized the data with scvis (Ding et al., 2018), a deep generative model-based method (FIGS. 1B and 8C, Methods). Next, Applicants identified genes that were differentially expressed between the cells in each cluster and the remaining cells (Table 1, Methods), as well as between pairs of clusters (Table 2), to elucidate identities of similar cell types/states. Applicants excluded from downstream analysis clusters mostly consisting of contaminants from epithelium, likely doublets, or cells with a small number of Unique Molecular Identifiers (UMIs) (FIGS. 1C and 8D), or lacking distinct markers (Methods). Altogether, Applicants retained 27 clusters spanning 85% of the cells and each associated with distinct marker genes (FIG. 8E, Methods).
To induce allergic reaction to OVA, 6 to 7 weeks old mice were sensitized twice, two weeks apart, with 50 μg of OVA plus 1 mg of aluminum potassium sulfate adjuvant via intraperitoneal injection. Two weeks later, mice were orally administered with 50 mg of OVA on every other day for a total of five times. 1 μg of α-CGRP peptide was administered simultaneously when indicated. Mice were deprived of food for 3-4 hours in cages with wood chip bedding for limiting antigen degradation in the stomach before each intragastric challenge.
Isolation of cells from Peyer's patches (PPs). Peyer's patches (PPs) were carefully dissected from the small intestine under a stereo microscope using a fine scissor, pierced once with a fine forcep. Tissues were digested in freshly made digestion buffer (RPMI-1640 containing 100 μg/ml Liberase™ and 50 μg/ml DNase I at 37° C. on a roto-mixer. After 15 min, tissues were very gently mixed using a 1 ml pipette. The supernatant was collected and added to ice-cold MACS buffer (pH 7.4; PBS plus 2% FCS and 2 mM EDTA). Pre-warmed (37° C.) fresh digestion buffer was added to the remaining tissues. After rotation at 37° C. for 15 min, the mixture was vigorously mixed using a 1 ml pipette for 1 min. Supernatants from the two steps were combined and passed through 70 μm filters and stained for FACS (below).
Isolation of cells from the lamina propria (LP). The small intestines were opened longitudinally and washed in ice-cold PBS. For scRNA-seq, roughly 0.5 cm of fragments from each of the distal, middle and proximal regions without visible PPs were collected. Epithelial cells were dissociated by tissue rotation in pre-warmed (37° C.) PBS containing 10 mM EDTA at 37° C. for 15 min, followed by additional incubation on ice for 15 min. Tissues were then shaken vigorously. […]

B1: OVA (protein, UniProt P01012 2-386, looked up)
Ovalbumin: GSIGAASMEFCFDVFKELKVHHANENIFYCPIAIMSALAMVYLGAKDSTRTQINKVVRFDKLPGFGDSIEAQCGTSVNVHSSLRDILNQITKPNDVYSFSLASRLYAEERYPILPEYLQCVKELYRGGLEPINFQTAADQARELINSWVESQTNGIIRNVLQPSSVDSQTAMVLVNAIVFKGLWEKAFKDEDTQAMPFRVTEQESKPVQMMYQIGLFRVASMASEKMKILELPFASGTMSMLVLLPDEVSGLEQLESIINFEKLTEWTSSNVMEERKIKVYLPRMKMEEKYNLTSVLMAMGITDVFSSSANLSGISSAESLKISQAVHAAHAEINEAGREVVGSAEAGVDAASVSEEFRADHPFLFCIKHIATNAVLFFGRCVSP
- Tsc22d3 LN (average fold change) (PP, cluster ID 9, OVA vs PBS): 1.031
- Tubb5 LN (average fold change) (PP, cluster ID 9, OVA vs PBS): −0.244
- Uba52 LN (average fold change) (PP, cluster ID 9, OVA vs PBS): 0.365
- Ubb LN (average fold change) (PP, cluster ID 9, OVA vs PBS): −0.190
- Wdr89 LN (average fold change) (PP, cluster ID 9, OVA vs PBS): 0.469
- Zfp36l2 LN (average fold change) (PP, cluster ID 9, OVA vs PBS): 1.590
- 1110059E24Rik percentage of expressing cells in OVA-treated group (PP, cluster ID 10): 0.507
- Apobec1 percentage of expressing cells in OVA-treated group (PP, cluster ID 10): 0.807
- Basp1 percentage of expressing cells in OVA-treated group (PP, cluster ID 10): 0.755
- Btg1 percentage of expressing cells in OVA-treated group (PP, cluster ID 10): 0.985
- Cd47 percentage of expressing cells in OVA-treated group (PP, cluster ID 10): 0.602
- Crlf3 percentage of expressing cells in OVA-treated group (PP, cluster ID 10): 0.658
- Ddit4 percentage of expressing cells in OVA-treated group (PP, cluster ID 10): 0.296
- Dusp1 percentage of expressing cells in OVA-treated group (PP, cluster ID 10): 0.451
- Egln2 percentage of expressing cells in OVA-treated group (PP, cluster ID 10): 0.558
- Hspa8 percentage of expressing cells in OVA-treated group (PP, cluster ID 10): 0.975
- Igha percentage of expressing cells in OVA-treated group (PP, cluster ID 10): 0.405
- Napsa percentage of expressing cells in OVA-treated group (PP, cluster ID 10): 0.776
- Ppp1r21 percentage of expressing cells in OVA-treated group (PP, cluster ID 10): 0.165
- Rsrp1 percentage of expressing cells in OVA-treated group (PP, cluster ID 10): 0.722
- Sesn1 percentage of expressing cells in OVA-treated group (PP, cluster ID 10): 0.402
- Sh3glb2 percentage of expressing cells in OVA-treated group (PP, cluster ID 10): 0.187
- Tsc22d3 percentage of expressing cells in OVA-treated group (PP, cluster ID 10): 0.689
- Ttc7 percentage of expressing cells in OVA-treated group (PP, cluster ID 10): 0.244
- Uba52 percentage of expressing cells in OVA-treated group (PP, cluster ID 10): 0.985
- Zfp36l2 percentage of expressing cells in OVA-treated group (PP, cluster ID 10): 0.68
- 1110059E24Rik LN (average fold change) (PP, cluster ID 10, OVA vs PBS): 0.715
- Apobec1 LN (average fold change) (PP, cluster ID 10, OVA vs PBS): 0.309
- Basp1 LN (average fold change) (PP, cluster ID 10, OVA vs PBS): −0.516
- Btg1 LN (average fold change) (PP, cluster ID 10, OVA vs PBS): 0.438
- Cd47 LN (average fold change) (PP, cluster ID 10, OVA vs PBS): 0.638
- Crlf3 LN (average fold change) (PP, cluster ID 10, OVA vs PBS): 0.396
- Ddit4 LN (average fold change) (PP, cluster ID 10, OVA vs PBS): 0.864
- Dusp1 LN (average fold change) (PP, cluster ID 10, OVA vs PBS): 0.614
- Egln2 LN (average fold change) (PP, cluster ID 10, OVA vs PBS): 0.624
- Hspa8 LN (average fold change) (PP, cluster ID 10, OVA vs PBS): −0.286
- Igha LN (average fold change) (PP, cluster ID 10, OVA vs PBS): 0.162
- Napsa LN (average fold change) (PP, cluster ID 10, OVA vs PBS): 0.374
- Ppp1r21 LN (average fold change) (PP, cluster ID 10, OVA vs PBS): 1.045
- Rsrp1 LN (average fold change) (PP, cluster ID 10, OVA vs PBS): −0.187
- Sesn1 LN (average fold change) (PP, cluster ID 10, OVA vs PBS): 1.071
- Sh3glb2 LN (average fold change) (PP, cluster ID 10, OVA vs PBS): 0.383
- Tsc22d3 LN (average fold change) (PP, cluster ID 10, OVA vs PBS): 1.088
- Ttc7 LN (average fold change) (PP, cluster ID 10, OVA vs PBS): 1.338
- Uba52 LN (average fold change) (PP, cluster ID 10, OVA vs PBS): 0.287
- Zfp36l2 LN (average fold change) (PP, cluster ID 10, OVA vs PBS): 1.856
- Jund percentage of expressing cells in OVA-treated group (PP, cluster ID 11): 0.855
- Jund LN (average fold change) (PP, cluster ID 11, OVA vs PBS): −0.624
- 1600014C10Rik: percentage of expressing cells in OVA-treated group (cluster ID 4, PP): 0.185
- 2010300C02Rik: percentage of expressing cells in OVA-treated group (cluster ID 4, PP): 0.518
- 2310001H17Rik: percentage of expressing cells in OVA-treated group (cluster ID 4, PP): 0.214
- 4921524J17Rik: percentage of expressing cells in OVA-treated group (cluster ID 4, PP): 0.161
- Alyref: percentage of expressing cells in OVA-treated group (cluster ID 4, PP): 0.141
- Amd1: percentage of expressing cells in OVA-treated group (cluster ID 4, PP): 0.192
- Asb2: percentage of expressing cells in OVA-treated group (cluster ID 4, PP): 0.548
- Azin1: percentage of expressing cells in OVA-treated group (cluster ID 4, PP): 0.135
- Bin3: percentage of expressing cells in OVA-treated group (cluster ID 4, PP): 0.235
- Bzw1: percentage of expressing cells in OVA-treated group (cluster ID 4, PP): 0.321
- Cacybp: percentage of expressing cells in OVA-treated group (cluster ID 4, PP): 0.293
- Cd69: percentage of expressing cells in OVA-treated group (cluster ID 4, PP): 0.737
- Cdkn1a: percentage of expressing cells in OVA-treated group (cluster ID 4, PP): 0.256
- Clec2d: percentage of expressing cells in OVA-treated group (cluster ID 4, PP): 0.261
- Cwc25: percentage of expressing cells in OVA-treated group (cluster ID 4, PP): 0.12
- D16Ertd472e: percentage of expressing cells in OVA-treated group (cluster ID 4, PP): 0.175
- Dnaja1: percentage of expressing cells in OVA-treated group (cluster ID 4, PP): 0.705
- Dnajb9: percentage of expressing cells in OVA-treated group (cluster ID 4, PP): 0.18
- Egln3: percentage of expressing cells in OVA-treated group (cluster ID 4, PP): 0.172
- Fam46a: percentage of expressing cells in OVA-treated group (cluster ID 4, PP): 0.099
- Fibp: percentage of expressing cells in OVA-treated group (cluster ID 4, PP): 0.178
- Furin: percentage of expressing cells in OVA-treated group (cluster ID 4, PP): 0.382
- Gatad1: percentage of expressing cells in OVA-treated group (cluster ID 4, PP): 0.155
- Gcnt2: percentage of expressing cells in OVA-treated group (cluster ID 4, PP): 0.144
- Gimap3: percentage of expressing cells in OVA-treated group (cluster ID 4, PP): 0.536
- Git2: percentage of expressing cells in OVA-treated group (cluster ID 4, PP): 0.3
- Gnb1: percentage of expressing cells in OVA-treated group (cluster ID 4, PP): 0.419
